Results on 4 molecules are retold here after article PMC4604023.

Data set [1] deals with nucleocapsid protein N (Rift Valley fever virus, UniProt P21700 1-245). The data set can be described thus: filter binding.
Target sequence in this assay (P21700 whole entry): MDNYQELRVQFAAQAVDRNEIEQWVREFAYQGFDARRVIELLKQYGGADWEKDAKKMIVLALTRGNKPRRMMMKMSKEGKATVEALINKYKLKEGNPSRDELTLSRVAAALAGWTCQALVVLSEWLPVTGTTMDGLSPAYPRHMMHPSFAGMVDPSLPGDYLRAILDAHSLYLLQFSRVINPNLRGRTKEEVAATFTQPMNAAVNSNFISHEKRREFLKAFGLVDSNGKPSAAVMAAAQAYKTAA
Data set [2] has the same target. As to the kind of experiment: filter binding. This is another data set of the same source.
Target sequence in this assay (P21700 whole entry): as above

Like-named read-outs stand apart in the source and are kept apart here.

B1: AS1 (AS-1) (structured_RNA)
RNA: GGUCGACAGGCUAGGCCGUCUAAAGCUGAUUGCUCCCGGGGAAUAAUUAUUGACAGCU
Turning to B1, in the data set with nucleocapsid protein N [1], the binding result is recorded as “binds”.

B2: MBE87 (structured_RNA)
RNA: GGCAUUACGGCCGGGAGCCAGUAUUACUGAUUGAUGAUUCUGUGGGCGUCUUCUAG
On to B2, for which the binding result in the data set with nucleocapsid protein N [2] is “binds”.

B3: AS2 (AS-2) (structured_RNA)
RNA: GGAGUAUCUGUCGGCAUCACGCUUGGAUGUGCAAGGCUCUUUAUCUCUAUUAUGCAAG
In the case of B3, the binding result in the data set with nucleocapsid protein N [1] is “binds”.

B4: AS4 (AS-4) (structured_RNA)
RNA: GGGGCGCGUUCUAAACAACGAUUGCCGACAAGACGAUUUCUGGGUCAAACUUUAUUCG
Turning to B4, the binding result in the data set with nucleocapsid protein N [1] is reported as “binds”.
